For data set [1], the target named is WT α-Synuclein amyloid fibrils (human) (UniProt P37840). In words: microfluidic diffusional sizing; Alexa647-labelled BRICHOS held constant (three concentrations a curve set), α-Syn fibrils varied between 0.01 and 24 µM (monomer equivalents), equilibrium within 2 hours; global fit of Kd and stoichiometry.
For data set [2] the target is unchanged. Described as above. This is another data set of the same source.
Data set [3] shares this target. In words: single-molecule TIRF microscopy (single particle tracking); α-Syn fibrils immobilised on a glass coverslip, blocked with BSA; Atto647-labelled Var II added at 1-100 nM in PBS.
For the next data set, the target named is Aβ42 amyloid fibrils (UniProt P05067). In words: microfluidic diffusional sizing; Alexa647-labelled BRICHOS held constant (three concentrations a curve set), Aβ42 fibrils varied between 0.01 and 24 µM (monomer equivalents), incubated 48 h; global fit of Kd and stoichiometry.
The target of data set [4] is WT α-Synuclein amyloid fibrils (human) (UniProt P37840). In words: NMR signal intensity ([15N,1H]-HMQC), competition; 100 µM 15N-labelled α-Syn monomer with 540 µM unlabelled α-Syn fibrils, 2 h at 4 °C, then unlabelled Var II added at 100, 300 or 500 µM, followed for ~120 min; 25 mM phosphate, 25 mM NaCl, pH ~6.8.
For data set [5], the target named is T1, proSP-C BRICHOS (K114I, R139Q) (UniProt P11686 90-197, K114I | R139Q, Alexa647 label in the microfluidic diffusional sizing (site not stated); Atto647 succinimidyl ester (amine labelling) in the single-molecule microscopy; 15N labelled in the NMR binding experiments …).
T1 construct: BRICHOS domain of proSP-C, residues 90-197, with two salt-bridge mutations of the trimer interface; Monomer by light scattering, diffusional sizing and NMR structure; also called variant II; Var II; source: E. coli BL21(DE3*) pLysS, purified (Ni-NTA, TEV digestion, Ni chromatography, SEC); not shown: His tag, N-terminal, cleaved; NT* solubility tag, N-terminal, cleaved
T1 sequence (looked up): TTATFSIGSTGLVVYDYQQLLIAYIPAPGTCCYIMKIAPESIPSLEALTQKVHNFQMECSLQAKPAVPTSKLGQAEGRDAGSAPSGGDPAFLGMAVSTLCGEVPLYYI
In words: NMR titration; 15N-labelled Var II, [15N,1H]-TROSY, peptide added at 100 µM to 2 mM; 25 mM phosphate, 25 mM NaCl, pH ~6.8, 2.5% DMSO, 303 K. The conditions noted are these: both partners purified.

Data set [6] deals with the molecule itself. In words: multi-angle light scattering; proSP-C BRICHOS alone in solution; molecular mass read out; conditions not stated.
Where [7] appears, read: scale: monomer units in the fibril per BRICHOS molecule.

Like-named read-outs stand apart in the source and are kept apart here.

With “proSP-C BRICHOS (E135R, R139E) (from UniProt P11686 90-197) (domain or fragment)”, the Kd (commonly a measure of binding affinity in units of concentration) in data set [1] turned out to be 1.26 µM; in data set [2], 0.00126 µM. For the same molecule, the stoichiometry N (commonly a count of units in the complex or per binding partner) in data set [1] (setting [7]) stood at 18.
On to “proSP-C BRICHOS (K114I, R139Q) (from UniProt P11686 90-197) (domain or fragment)”, for which, in data set [3], the residence time on the fibrils lay within 350 to 400 ms and the residence time on the fibrils (three exemplary molecules) came out at 100 s. In the data set with Aβ42 amyloid fibrils, the Kd came to 0.0214 µM. In addition, the stoichiometry N with Aβ42 amyloid fibrils (setting [7]) was 6. Further, the Kd in data set [1] stood at 0.45 µM. Further, the stoichiometry N in data set [1] (scale: monomer units in the fibrils per BRICHOS molecule) worked out at 7. The Kd in data set [2] was found to be 450 µM. Further, in data set [4], the percent of fibril-bound monomeric α-Syn released (100 µM Var II) was 25%, the percent of fibril-bound monomeric α-Syn released (300 µM Var II) was found to be 50% and the percent of fibril-bound monomeric α-Syn released (500 µM Var II) was found to be 65%.
For “WT proSP-C BRICHOS domain (residues 90-197) (from UniProt P11686 90-197) (domain or fragment)”, the results for the Kd (with Aβ42 amyloid fibrils; in data set [1]) were 0.192 µM and 0.696 µM, respectively. Further, the stoichiometry N was 8 with Aβ42 amyloid fibrils (scale: Aβ42 monomer units on the fibril per BRICHOS molecule) and 38 in data set [1] (scale: monomer units of α-Syn per BRICHOS molecule).

B1: client peptide B (peptide)
peptide: VLEMGSGSGSKKVVVVVKK
notes: model client peptide, designed to be able to form a beta hairpin; said to represent part of the transmembrane helical segment of native proSP-C; Dissolved in DMSO at 20 mM stock; also called substrate peptide; source: synthetic peptide; bought: GL Biochem, Shanghai
Consider B1, for which the Kd in data set [5] was around 800 µM.

B2: WT proSP-C BRICHOS domain (residues 90-197) (domain or fragment, UniProt P11686 90-197, looked up)
chain: TTATFSIGSTGLVVYDYQQLLIAYKPAPGTCCYIMKIAPESIPSLEALTRKVHNFQMECSLQAKPAVPTSKLGQAEGRDAGSAPSGGDPAFLGMAVSTLCGEVPLYYI
modifications: Alexa647 label in the microfluidic diffusional sizing (site not stated); 15N,13C labelled for NMR
notes: BRICHOS domain of the lung surfactant protein C precursor (proSP-C), residues 90-197; Homotrimer by light scattering, diffusional sizing and NMR structure; Disulfide bridges 120-148 and 121-189 were restrained in the structure calculation; BMRB entries 34811 and 34813 are printed without saying which is the trimer; also called WT BRICHOS; trimeric proSP-C BRICHOS; not shown: His tag, N-terminal, …
For the molecule B2, the “stoichiometry N” value in data set [6] was determined as 3.

The values above are taken from PMC11579453 (Nature Communications, 2024).
